Test results: patent US20250250330A1 (REVOPSIS THERAPEUTICS, published 2025)

Experiments:
[1] = target: T1, His-tagged recombinant human ANG-2 (AcroBiosystems, Cat #AN2-H52H4) (human, UniProt O15123 275-496); test: ELISA EC50 on rhANG-2, against Faricimab
T1 construct: also called rhANG-2; rhANG-2-His; not shown: His tag
T1 sequence (looked up): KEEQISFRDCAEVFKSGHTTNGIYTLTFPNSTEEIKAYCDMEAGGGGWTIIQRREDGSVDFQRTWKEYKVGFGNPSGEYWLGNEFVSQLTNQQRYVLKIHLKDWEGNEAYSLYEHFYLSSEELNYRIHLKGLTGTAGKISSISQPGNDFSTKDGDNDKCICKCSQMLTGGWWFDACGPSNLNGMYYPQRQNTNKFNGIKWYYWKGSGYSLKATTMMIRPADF
Procedure: Donkey anti-human IgG Fcγ-HRP (Jackson ImmunoResearch Laboratories, Cat #709-035-098) was used for detection and visualized by TMB substrate. OD450 nm readings were measured by Victor 3 with PerkinElmer 1420 Multilabel Counter.

[2] = target: T1, His-tagged recombinant human ANG-2 …; test: competition ELISA; IC50 ratio against Faricimab for inhibition of ANG-2-Tie-2 binding
[3] = target: T2, rhPlGF-1 (Peprotech_100-06) (human, UniProt P49763-2 19-149); test: ELISA: rhPlGF-1_Peprotech coated at 1 ug/mL, RO-101_Sample 1 from 100 nM in 1:3 dilutions, detected with anti-human IgG Fc-gamma-HRP
T2 construct: Bought protein; also called rhPIGF-1; PIGF-1
T2 sequence (looked up): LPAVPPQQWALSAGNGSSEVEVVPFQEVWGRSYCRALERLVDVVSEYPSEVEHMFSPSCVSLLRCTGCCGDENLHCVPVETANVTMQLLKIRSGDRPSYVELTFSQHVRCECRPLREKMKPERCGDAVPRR
Procedure: Third, the binding to rhPIGF-1 or rhPIGF-3 was tested in comparison with rhVEGF₁₆₅. Target proteins were used to coat Corning 9017 medium binding plates at 1 μg/mL and 100 μl per well. […] Donkey anti-human IgG Fcγ-HRP was used for detection. OD450 nm readings were measured by Victor 3.

[4] = target: T1, His-tagged recombinant human ANG-2 …; test: ELISA on coated human ANG-2
[5] = target: T3, Recombinant human VEGF165 (Peprotech, Cat #100-20) (human, UniProt P15692-4 27-191); test: ELISA on rhVEGF165; biotinylated anti-VpreB antibody and streptavidin-HRP detection
T3 construct: Bought protein; also called rhVEGF165; rh VEGF165

[6] = target: T3, Recombinant human VEGF165 (Peprotech, …); test: competition ELISA; IC50 ratio against Faricimab for inhibition of VEGF165-VEGF R2/KDR binding
Procedure: The mixture was added to ELISA binding plates which contained rhVEGF₁₆₅ coating. […] The receptor binding was detected by HRP-conjugated streptavidin (Jackson ImmunoResearch Laboratories, Cat #016-030-084) and visualized by TMB substrate.

[7] = target: T1, His-tagged recombinant human ANG-2 …; test: ELISA on rhANG-2; biotinylated anti-VpreB antibody and streptavidin-HRP detection; SgG format; anti-VpreB detection
Procedure: SgG1 was diluted in blocking buffer at a starting concentration of 10 nM. Sab and scSv were diluted in blocking buffer at a starting concentration of 100 nM. They were then 1:3 serial diluted.

[8] = target: T4, rdANG-2 (canine/dog; Creative Biolab_Vang-3062Lsx) (Canine/Dog, UniProt A0A8J8 19-495, limits assumed); test: ELISA on coated dog ANG-2
T4 construct: also called Dog ANG-2
T4 sequence (looked up): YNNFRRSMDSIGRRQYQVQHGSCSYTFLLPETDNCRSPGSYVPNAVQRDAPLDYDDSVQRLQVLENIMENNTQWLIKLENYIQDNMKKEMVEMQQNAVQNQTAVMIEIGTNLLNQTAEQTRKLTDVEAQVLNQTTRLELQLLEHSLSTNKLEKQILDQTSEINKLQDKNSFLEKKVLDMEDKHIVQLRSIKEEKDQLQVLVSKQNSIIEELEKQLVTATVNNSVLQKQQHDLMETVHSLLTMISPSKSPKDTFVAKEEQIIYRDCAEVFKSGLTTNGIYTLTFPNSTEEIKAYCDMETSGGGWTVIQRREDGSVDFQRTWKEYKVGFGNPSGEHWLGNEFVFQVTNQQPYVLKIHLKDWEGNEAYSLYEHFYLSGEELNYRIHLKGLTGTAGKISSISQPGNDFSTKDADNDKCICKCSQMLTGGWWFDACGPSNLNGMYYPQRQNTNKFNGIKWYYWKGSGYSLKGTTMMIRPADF

[9] = target: T5, rdVEGF163 (canine/dog; R&D 1603-CV-010/CF) (Canine/Dog, UniProt Q9MYV3-3 27-190, limits assumed); test: ELISA on coated dog VEGF-A
T5 construct: Bought protein; also called Dog VEGF-A
T5 sequence (looked up): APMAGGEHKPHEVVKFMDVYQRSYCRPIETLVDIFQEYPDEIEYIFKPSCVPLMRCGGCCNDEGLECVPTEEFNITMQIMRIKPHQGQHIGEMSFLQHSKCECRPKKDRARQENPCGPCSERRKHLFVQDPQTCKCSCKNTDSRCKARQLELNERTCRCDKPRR

[10] = target: T6, rrVEGF165 (rabbit; Kingfisher Biotech_RP1025U-025) (Rabbit, UniProt P49151 27-190 (pig entry)); test: ELISA on coated rabbit VEGF-A
T6 construct: Bought protein; also called Rabbit VEGF-A
T6 chain: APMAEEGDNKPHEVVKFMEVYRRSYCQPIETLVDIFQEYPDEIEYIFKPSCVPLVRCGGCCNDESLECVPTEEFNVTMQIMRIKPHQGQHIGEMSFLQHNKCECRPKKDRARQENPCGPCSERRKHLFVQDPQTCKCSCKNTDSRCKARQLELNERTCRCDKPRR

RO-101/Faricimab Fold [1]: 53 fold
Fold [2]: 17.2 fold
binding result [3]: no binding (tested: 100 nM (Log(nM) 2))
EC50 [4]: 0.007 nM
EC50 [5]: 0.0057 nM
Fold [6]: 3.25 fold
EC50 [7]: 0.0257 nM
EC50 [8]: 0.0135 nM
EC50 [9]: 0.0237 nM
EC50 [10]: 0.0334 nM
B1: RO-101 VEGF/ANG-2 bispecific surrobody (bispecific antibody, human IgG1, L234A L235A)
heavy 1: not shown
heavy 2: EVQLVESGGGLVKPGGSLRLSCAASGFTFSSYGMHWVRQAPGKGLEWVAGISADSGDKNYADSVKGRFTISRDNAKNSLYLQMNSLRAEDTAVYYCAKEFISWIYTFDYLDYWGQGTLVTVSSASTKGPSVFPLAPSSKSTSGGTAALGCLVKDYFPEPVTVSWNSGALTSGVHTFPAVLQSSGLYSLSSVVTVPSSSLGTQTYICNVNHKPSNTKVDKKVEPKSCDKTHTCPPCPAPEAAGGPSVFLFPPKPKDTLMISRTPEVTCVVVDVSHEDPEVKFNWYVDGVEVHNAKTKPREEQYNSTYRVVSVLTVLHQDWLNGKEYKCKVSNKALPAPIEKTISKAKGQPREPQVCTLPPSRDELTKNQVSLSCAVKGFYPSDIAVEWESNGQPENNYKTTPPVLDSDGSFFLVSKLTVDKSRWQQGNVFSCSVMHEALHNHYTQKSLSLSPG
light: QPVLHQPPAMSSALGTTIRLTCTLRNDHDIGVYSVYWYQQRPGHPPRFLLRYFSQSDKSQGPQVPPRFSGSKDVARNRGYLSISELQPEDEAMYYCAMGARSSVTHVFGSGTQLTVLSQPKATPSVTLFPPSSEELQANKATLVCLMNDFYPGILTVTWKADGTPITQGVEMTTPSKQSNNKYAASSYLSLTPEQWRSRRSYSCQVMHEGSTVEKTVAPAECS
notes: Format SgG1; also called Sample 1
